Measurements: patent US20250206828A1, “ANTI-ADENOSINE RECEPTOR (A2aR) ANTIBODIES AND THE USE THEREOF” (Adept Therapeutics Inc., priority 2022, published 2025)

Biological target: T1, human adenosine A2A receptor (A2aR) (human, UniProt P29274 1-412)
T1 construct: Assays used HEK293 cells stably overexpressing human A2aR (BPS Bioscience 79381), human A2aR-expressing CHO cells, or endogenous A2aR on human PBMC; also called human A2aR; hA2aR
Test: flow cytometry, HEK293-hA2aR cells, supernatant 1 ug/ml

T1 sequence (P29274 whole entry): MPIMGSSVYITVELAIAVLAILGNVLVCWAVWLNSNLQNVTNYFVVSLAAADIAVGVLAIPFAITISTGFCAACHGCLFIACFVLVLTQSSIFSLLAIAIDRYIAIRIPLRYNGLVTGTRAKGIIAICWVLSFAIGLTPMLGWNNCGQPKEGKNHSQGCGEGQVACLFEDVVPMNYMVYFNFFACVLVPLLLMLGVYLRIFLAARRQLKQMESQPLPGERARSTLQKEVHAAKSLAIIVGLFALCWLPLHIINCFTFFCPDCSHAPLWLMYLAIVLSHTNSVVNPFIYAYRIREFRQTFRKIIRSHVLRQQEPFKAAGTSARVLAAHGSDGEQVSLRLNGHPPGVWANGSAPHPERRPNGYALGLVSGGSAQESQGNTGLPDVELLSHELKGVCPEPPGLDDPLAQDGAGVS

| MFI [MFI] | Binder |
| --- | --- |
| 1170 | Hu3F6-H6/Hu3F6-L7 (antibody, human IgG1, V domains shown, Human IgG1 FES (L234F, L235E, P331S) and human Ig kappa constant domains) VH: EVQLVQSGAEVKKPGESLRISCKASGFAFTSYWMNWVRQMPGKGLEWIGRIDPSDSEAHYHHKFWGHATLSVDKSSSTVYLQWSSLKASDTAMYYCLRSLYGKGDYWGHGTTVTVSS VL: DVVMTQTPPSLPVNPGEPASISCRSSQSLVHRNGNTYLEWYLQKPGQSPQLLIYKVSNRFSGVPDRFSGSGSGSDFTLKISWVEAEDVGVYYCYQGSHVPLTFGGGTKVEIK |
| 979 | Hu3F6-H6/Hu3F6-L6 (antibody, human IgG1, V domains shown, Human IgG1 FES (L234F, L235E, P331S) and human Ig kappa constant domains) VH: EVQLVQSGAEVKKPGESLRISCKASGFAFTSYWMNWVRQMPGKGLEWIGRIDPSDSEAHYHHKFWGHATLSVDKSSSTVYLQWSSLKASDTAMYYCLRSLYGKGDYWGHGTTVTVSS VL: DIVMTQTPPSLPVNPGEPASISCRSSQSLVHRNGNTYLEWYLQKPGQSPQLLIYKVSNRFSGVPDRFSGSGSGSDFTLKISWVEAEDVGVYYCYQGSHVPLTFGGGTKVEIK |
| 1980 | Hu3F6-H6/Hu3F6-L5 (antibody, human IgG1, V domains shown, Human IgG1 FES (L234F, L235E, P331S) and human Ig kappa constant domains) VH: EVQLVQSGAEVKKPGESLRISCKASGFAFTSYWMNWVRQMPGKGLEWIGRIDPSDSEAHYHHKFWGHATLSVDKSSSTVYLQWSSLKASDTAMYYCLRSLYGKGDYWGHGTTVTVSS VL: DVVMTQTPLSLSVTPGQPASISCRSSQSLVHRNGNTYLEWYLQKPGQSPQLLIYKVSNRFSGVPDRFSGSGSGTDFTLKISRVEAEDVGVYYCYQGSHVPLTFGGGTKVEIK |

Further lines, the binder ahead of its results:

| Binder | MFI [MFI] |
| --- | --- |
| Hu3F6-H3/Hu3F6-L7 (antibody, human IgG1, V domains shown, Human IgG1 FES (L234F, L235E, P331S) and human Ig kappa constant domains) VH: EVQLVQSGAEVKKPGASVKVSCKTSGFAFTSYWMNWVRQAPGQGLEWIGRIDPSDSEAHYHHKFWGRATLTVDTSSSTVYMELSSLRSEDTAVYYCLRSLYGKGDYWGHGTTVTVSS VL: DVVMTQTPPSLPVNPGEPASISCRSSQSLVHRNGNTYLEWYLQKPGQSPQLLIYKVSNRFSGVPDRFSGSGSGSDFTLKISWVEAEDVGVYYCYQGSHVPLTFGGGTKVEIK | 1510 |
| Hu3F6-H2/Hu3F6-L1 (antibody, human IgG1, V domains shown, Human IgG1 FES (L234F, L235E, P331S) and human Ig kappa constant domains) VH: EVQLVQSGAEVKKPGASVKVSCKTSGFAFTSYWMNWVRQAPGQGLEWMGRIDPSDSEAHYHHKFWGRVTMTVDTSTSTVYMELSSLRSEDTAVYYCLRSLYGKGDYWGHGTTVTVSS VL: DVVMTQSPLSLPVTLGQPASISCRSSQSLVHRNGNTYLEWFQQRPGQSPRRLIYKVSNRFSGVPDRFSGSGSGTDFTLKISRVEAEDVGVYYCYQGSHVPLTFGGGTKVEIK | 13 |
| Hu3F6-H1/Hu3F6-L1 (antibody, human IgG1, V domains shown, Human IgG1 FES (L234F, L235E, P331S) and human Ig kappa constant domains) VH: QVQLVQSGAEVKKPGASVKVSCKASGFAFTSYWMNWVRQAPGQGLEWMGRIDPSDSEAHYHHKFWGRVTMTRDTSTSTVYMELSSLRSEDTAVYYCLRSLYGKGDYWGHGTTVTVSS VL: DVVMTQSPLSLPVTLGQPASISCRSSQSLVHRNGNTYLEWFQQRPGQSPRRLIYKVSNRFSGVPDRFSGSGSGTDFTLKISRVEAEDVGVYYCYQGSHVPLTFGGGTKVEIK | 15 |
| Hu3F6-H6/Hu3F6-L3 (antibody, human IgG1, V domains shown, Human IgG1 FES (L234F, L235E, P331S) and human Ig kappa constant domains) VH: EVQLVQSGAEVKKPGESLRISCKASGFAFTSYWMNWVRQMPGKGLEWIGRIDPSDSEAHYHHKFWGHATLSVDKSSSTVYLQWSSLKASDTAMYYCLRSLYGKGDYWGHGTTVTVSS VL: DVVMTQSPLSLPVTLGQPASISCRSSQSLVHRNGNTYLEWYQQRPGQSPRLLIYKVSNRFSGVPDRFSGSGSGTDFTLKISRVEAEDVGVYYCYQGSHVPLTFGGGTKVEIK | 2090 |
| Hu3F6-H6/Hu3F6-L2 (antibody, human IgG1, V domains shown, Human IgG1 FES (L234F, L235E, P331S) and human Ig kappa constant domains) VH: EVQLVQSGAEVKKPGESLRISCKASGFAFTSYWMNWVRQMPGKGLEWIGRIDPSDSEAHYHHKFWGHATLSVDKSSSTVYLQWSSLKASDTAMYYCLRSLYGKGDYWGHGTTVTVSS VL: DVVMTQSPLSLPVTLGQPASISCRSSQSLVHRNGNTYLEWYQQRPGQSPRRLIYKVSNRFSGVPDRFSGSGSGTDFTLKISRVEAEDVGVYYCYQGSHVPLTFGGGTKVEIK | 17 |
| Hu3F6-H6/Hu3F6-L1 (antibody, human IgG1, V domains shown, Human IgG1 FES (L234F, L235E, P331S) and human Ig kappa constant domains) VH: EVQLVQSGAEVKKPGESLRISCKASGFAFTSYWMNWVRQMPGKGLEWIGRIDPSDSEAHYHHKFWGHATLSVDKSSSTVYLQWSSLKASDTAMYYCLRSLYGKGDYWGHGTTVTVSS VL: DVVMTQSPLSLPVTLGQPASISCRSSQSLVHRNGNTYLEWFQQRPGQSPRRLIYKVSNRFSGVPDRFSGSGSGTDFTLKISRVEAEDVGVYYCYQGSHVPLTFGGGTKVEIK | 27 |
| Hu3F6-H4/Hu3F6-L8 (antibody, human IgG1, V domains shown, Human IgG1 FES (L234F, L235E, P331S) and human Ig kappa constant domains) VH: EVQLVQSGAEVKKPGASVKVSCKTSGFAFTSYWMNWVRQAPGQGLEWIGRIDPSDSEAHYHHKFWGRATLTVDKSSSTVYMELSSLRSEDTAVYYCLRSLYGKGDYWGHGTTVTVSS VL: DVVMTQSPLSLPVTPGEPASISCRSSQSLVHRNGNTYLEWYLQKPGQSPQLLIYKVSNRFSGVPDRFSGSGSGTDFTLKISRVEAEDVGVYYCYQGSHVPLTFGGGTKVEIK | 1710 |
| Hu3F6-H6/Hu3F6-L4 (antibody, human IgG1, V domains shown, Human IgG1 FES (L234F, L235E, P331S) and human Ig kappa constant domains) VH: EVQLVQSGAEVKKPGESLRISCKASGFAFTSYWMNWVRQMPGKGLEWIGRIDPSDSEAHYHHKFWGHATLSVDKSSSTVYLQWSSLKASDTAMYYCLRSLYGKGDYWGHGTTVTVSS VL: DIVMTQTPLSLSVTPGQPASISCRSSQSLVHRNGNTYLEWYLQKPGQSPQLLIYKVSNRFSGVPDRFSGSGSGTDFTLKISRVEAEDVGVYYCYQGSHVPLTFGGGTKVEIK | 2000 |
